Experiments:
xrcc4_human XRCC4 [1] = target: xrcc4_human XRCC4 (UniProt Q13426)
xrcc4_human XRCC4 [2] = target: xrcc4_human XRCC4 (UniProt Q13426); remark: listed apart in the source

Sequence of xrcc4_human XRCC4 (Q13426 whole entry): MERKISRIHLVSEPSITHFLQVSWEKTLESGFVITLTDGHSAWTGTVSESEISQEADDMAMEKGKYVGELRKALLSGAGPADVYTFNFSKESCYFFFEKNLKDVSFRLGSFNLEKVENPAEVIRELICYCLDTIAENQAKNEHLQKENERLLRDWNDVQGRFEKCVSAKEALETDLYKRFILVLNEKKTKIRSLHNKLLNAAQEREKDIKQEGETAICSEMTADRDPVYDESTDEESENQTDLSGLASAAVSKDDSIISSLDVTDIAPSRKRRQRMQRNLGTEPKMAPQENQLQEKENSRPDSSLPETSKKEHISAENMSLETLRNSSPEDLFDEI

effect of a mutation on the interaction (xrcc4_human XRCC4 [1])	effect of a mutation on the interaction (xrcc4_human XRCC4 [2])	Substance
decreasing interaction	–	Bifunctional polynucleotide phosphatase/kinase (Homo sapiens), Q96T60 S114A
–	decreasing interaction	Bifunctional polynucleotide phosphatase/kinase (Homo sapiens), Q96T60 S126A
